Experiments:
[1] = molecular target: Grappling Hook Protein A (GhpA), assembled as the grappling hook (Aureispira sp. CCB-QB1); experiment: cryo-EM structure
[2] = molecular target: Grappling Hook Protein A (GhpA), assembled as the grappling hook (Aureispira sp. CCB-QB1); experiment: cryo-electron tomography with subtomogram averaging

Substance: Grappling Hook Protein A (GhpA), assembled as the grappling hook (natural protein)
- stoichiometry N [1]: 7
- stoichiometry N [2]: 7
